Biological target: CIN85 of MDCK cells (dog (endogenous in MDCK))
Experiment: co-IP; whole cell lysates (RIPA), 500 μg; precipitated with anti-CIN85 antibody, blotted with anti-MUC1 (3C6, Ab5) or anti-Tac; washed with RIPA containing 0.5 M NaCl, 2% SDS; control unrelated IgG; intensity by Image J

fold co-precipitation against the construct lacking the cytoplasmic tail (22TR-Tac): 1.9 fold | fold co-precipitation against the construct lacking the extracellular domain (Tac-CT): 2.4 fold
Substance: full-length MUC1 containing 22 tandem repeats in the VNTR domain (natural protein)
